In ChEMBL document CHEMBL2074291, “Species differences in the transport activity for organic anions across the bile canalicular membrane” (J Pharmacol Exp Ther, 1999):

Substrate: N[C@@H](CCC(=O)N[C@H](CSc1ccc([N+](=O)[O-])cc1[N+](=O)[O-])C(=O)NCC(=O)O)C(=O)O
Assay: TP_TRANSPORTER: uptake in bile canalicular membrane vesicles from ddY mouse
Type: functional, cell membranes, Bile canalicular membrane vesicle

B1: ATP-binding cassette sub-family C member 2 (Mus musculus) (protein)
chain: MDEFCNSTFWNLSLLKSPEADLPLCFEQTVLVWIPLGFLWLLAPWQLYRIYRSRTKRFAITKFYLAKQVFVVCLLILAAIDLSLALTEDTGQATIPPVKYTNPILYLCTWLLVLVIQHCRQCCIQKNSWFLSMFWILSLLCGIFQFQTLIRALLQDSKSNMTYSCLFFVSYGFQIVILILSAFSESSDSTHAPSATASFLSSVTFSWYDSTVLKGYKHPLTIEDVWDIEENLKAKSLTSKFKTIMTKDLQKARQALQRRLKKSQQSPEGTSHGLTKKQSQSQDVLVLEDSKKKKKKSEATKDFPKSWLVKALFKTFYVVILKSFILKLAHDILLFLNPQLLKFLIGFVKDPDSYPWVGYIYAILMFSVTLIQSFFLQCYFQFCFVLGMTVRTTIIASVYKKALTLSNLARRQYTIGETVNLMSVDSQKLMDVTNYIHLLWSSVLQIALSIFFLWRELGPSILAGVGLMVLLVPVNGVLATKIRKIQVQNMKNKDKRLKIMNEILSGIKILKYFAWEPSFKEQVNSIRKKELRNLLRFSQLQTILIFILHLTPTLVSVITFSVYVLVDSQNVLNAEKAFTSITLFNILRFPLAMLPMVISSVIQASVSVDRLEQYLGSDDLDLSAIRHVCHFDKAVQFSEASFTWDRDLEATIQDVNLDIKPGQLVAVVGTVGSGKSSLISAMLGEMENVHGHITIKGSIAYVPQQAWIQNGTIKDNILFGSEYDEKKYQRVIEACALLPDLEMLPGGDMAEIGEKGINLSGGQKHRVSLARATYQDADIYILDDPLSAVDTHVGKHIFNKVVGPNGLLSGKTRILVTHGIHFLPQVDEIVVLGKGTILEKGSYSDLMDKKGVFAKNWKTFMKHSGPEGEATVDNDSEEEDGDCGLIPTVEEIPDDAASLTMRRENSLRRTLSRSSRSGSRRGKSLKSSLKIKSVNALNKKEEVVKGQKLIKKEFVETGKVKFSIYLKYLQAVGWWSLLFIVIFYVLNYVAFIGTNLWLSAWTSDSEKQNGTDNSPSQRDMRIGVFGALGIAQGIFLLSSSLWSIYACRNASKTLHRQLLTNILRAPMSFFDTTPTGRIVNRFAGDISTVDDTLPQTLRSWLLCFFGIVSTLVMICMATPIFIIIIIPLSILYVSVQVFYVATSRQLRRLDSVTKSPIYSHFSETVSGLPVIRAFEHQQRFLANSEKQIDTNQKCVFSWITSNRWLAIRLELVGNLIVFCSALLLVIYKNSLTGDTVGFVLSNALNITQTLNWLVRMTSEVETNIVAVERINEYINVDNEAPWVTDKKPPADWPKKGEIQFNNYQVRYRPELDLVLKGITCNIKSTEKVGVVGRTGAGKSSLTNCLFRILESAGGQIIIDGIDIASIGLHDLRGRLTIIPQDPILFSGNLRMNLDPFNKYSDEEIWRALELAHLKSFVAGLQLGLLHEVTEGGDNLSIGQRQLLCLGRAVLRKSKILVLDEATAAVDLETDSLIQTTIRNEFSQCTVITIAHRLHTIMDSDKIMVLDSGKIVEYGSPEELLSNMGPFYLMAKEAGIESVNHTEL
Km: 25.5 µM
